This is an account of results in patent US20240325557A1 (INNATE PHARMA, published 2024).

For assay [1], the target named is T1, huNectin4-C1C2-V5 (C1C2 construct, lacking the Ig-like V domain) (human, UniProt Q96NY8 148-510).
T1 construct: Expressed on CHO cells; also called Hu-Nectin4 IgC1C2-V5; Nectin4-C1C2-V5 sorted cells
T1 sequence: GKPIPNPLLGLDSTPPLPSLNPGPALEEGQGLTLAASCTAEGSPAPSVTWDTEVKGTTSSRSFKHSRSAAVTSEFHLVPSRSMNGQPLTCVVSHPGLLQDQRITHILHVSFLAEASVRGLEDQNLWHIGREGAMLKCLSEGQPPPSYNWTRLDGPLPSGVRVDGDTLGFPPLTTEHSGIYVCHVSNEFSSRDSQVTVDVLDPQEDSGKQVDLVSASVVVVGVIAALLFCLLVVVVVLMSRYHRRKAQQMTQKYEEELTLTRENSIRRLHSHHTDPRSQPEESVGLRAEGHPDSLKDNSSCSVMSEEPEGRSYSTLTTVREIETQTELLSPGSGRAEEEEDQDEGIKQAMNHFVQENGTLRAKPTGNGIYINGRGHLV
As to the kind of experiment: flow cytometry on Nectin4-C1C2-V5 sorted cells. Background: In flow cytometry, cells or beads pass a laser one at a time.

Assay [2] deals with T2, human Nectin-4 Mutant 7bis (human, UniProt Q96NY8 32-510).
T2 construct: Expressed on transfected HEK-293T cells; also called A72P/G73N/K197T/S199A
T2 chain: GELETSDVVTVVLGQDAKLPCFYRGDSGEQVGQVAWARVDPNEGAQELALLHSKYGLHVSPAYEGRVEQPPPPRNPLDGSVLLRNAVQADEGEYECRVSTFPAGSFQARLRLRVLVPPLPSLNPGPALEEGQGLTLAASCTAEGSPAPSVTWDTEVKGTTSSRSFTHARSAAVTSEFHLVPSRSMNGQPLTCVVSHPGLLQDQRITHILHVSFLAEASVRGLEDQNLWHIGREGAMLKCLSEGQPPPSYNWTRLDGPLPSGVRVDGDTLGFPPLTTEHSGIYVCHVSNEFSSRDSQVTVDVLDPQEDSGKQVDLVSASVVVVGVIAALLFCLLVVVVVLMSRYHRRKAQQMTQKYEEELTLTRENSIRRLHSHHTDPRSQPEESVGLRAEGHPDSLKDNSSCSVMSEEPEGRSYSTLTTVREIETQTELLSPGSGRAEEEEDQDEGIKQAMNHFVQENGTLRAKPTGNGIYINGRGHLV
Kind of assay: binding to HEK-293T cells transfected with the Nectin-4 mutant.

The next assay deals with T3, human Nectin-4 Mutant 7 (human, UniProt Q96NY8 32-510).
T3 construct: Expressed on transfected HEK-293T cells; also called S195A/K197T/S199A
T3 chain: T2 chain with P41A, N42G, S164A
The assay is described as above.

The target in assay [3] is T4, human Nectin 1 on CHO cells (human, UniProt Q15223 31-517).
T4 sequence: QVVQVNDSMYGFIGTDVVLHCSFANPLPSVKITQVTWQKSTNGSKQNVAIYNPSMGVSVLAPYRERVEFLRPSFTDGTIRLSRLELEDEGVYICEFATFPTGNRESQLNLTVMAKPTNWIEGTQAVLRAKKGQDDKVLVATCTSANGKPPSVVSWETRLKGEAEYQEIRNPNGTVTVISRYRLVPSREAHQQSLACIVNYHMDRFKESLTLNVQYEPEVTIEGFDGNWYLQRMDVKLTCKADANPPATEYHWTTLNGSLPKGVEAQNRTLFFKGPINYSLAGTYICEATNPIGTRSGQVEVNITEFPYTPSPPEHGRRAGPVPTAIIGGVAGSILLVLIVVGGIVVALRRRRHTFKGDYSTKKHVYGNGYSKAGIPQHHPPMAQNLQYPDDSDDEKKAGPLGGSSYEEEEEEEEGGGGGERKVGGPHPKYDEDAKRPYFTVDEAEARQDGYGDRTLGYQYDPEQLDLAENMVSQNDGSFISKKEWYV
Kind of assay: flow cytometry on CHO cells expressing human Nectin 1. Here is the method: Anti-Nectin-4 antibodies were tested by flow cytometry for binding to different CHO cell lines made to express respectively the human Nectin 1, Nectin 2, Nectin 3 and PVR proteins. The expression of each cell lines was controlled and validated with known respectively the anti-human Nectin1, anti-human Nectin2, anti-human Nectin3 and anti-human PVR antibodies. The mature amino acid sequence of the proteins expressed by the cells were as follows:
Nectin 1, Nectin 2, Nectin 3 and PVR proteins as in Example 12. […] Epitope mapping was carried out by assessing competition for binding to Nectin-4 by SPR as in Example 14.

In assay [4] the target is T5, wild-type human Nectin-4 on the CHO huNectin4 Cl.3C8 cell line (human, UniProt Q96NY8 32-510).
T5 construct: also called whole Nectin-4 protein; huNectin4 CI.3C8
T5 sequence: T2 chain with P41A, N42G, T166K, A168S
Kind of assay: flow cytometry on wild-type human Nectin-4 cell line.

Substitutions are numbered along the chain they refer to.

B1: antibody 6A7 (antibody, human IgG1, V domains shown)
VH: QVQLKESGAELVKPGASVKLSCKASGYTFTSYWMHWVKQRPGHGLEWVGEIDPSDSYTNYNQKFKGKATLTIDKSSSTVYMQLSSLTSEDSAVYYCARSGNYDAMDYWGQGTSVTVSA
VL: DIVMTQAAFSSAVTLGTSASISCRSSKSLLHSNGITYLYWYLQKPGQSPHFLIYQMSNLASGVPDRFTSSGSGTDFTLRISRVEAEDVGVYYCAQNLELPWTFGGGTKLEIK
notes: also called CHG1-M-4N4-6A7
Regarding B1, the binding result in assay [1] is listed as “binds”; in assay [2], “no binding”; with human Nectin-4 Mutant 7, “no binding”; in assay [3], “no binding”; in assay [4] it was “binds”.
